In PMC6166989 (PLoS Pathogens, 2018):

Target: the molecule itself
Experiment: SEC

B1: PV-2C-[change] (poliovirus 2C^ATPase residues 116–329) (domain or fragment)
chain: SKHRIEPVCLLVHGSPGTGKSVATNLIARAIAERENTSTYSLPPDPSHFDGYKQQGVVIMDDLNQNPDGADMKLFCQMVSTVEFIPPMASLEEKGILFTSNYVLASTNSSRISPPTVAHSDALARRFAFDMDIQVMNEYSRDGKLNMAMATEMCKNCHQPANFKRCCPLVCGKAIQLMDKSSRVRYSIDQITTMIINERNRRSNIGNCMEALFQ
  stoichiometry N: 4
